# Experimental data from article PMC10417383, “DNA-Binding Activity of CAMTA3 Is Essential for Its Function: Identification of Critical Amino Acids for Its Transcriptional Activity”.
# T1: CAMTA3 CG-1 WT (Arabidopsis thaliana, UniProt Q8GSA7 1-153)
# T1 sequence: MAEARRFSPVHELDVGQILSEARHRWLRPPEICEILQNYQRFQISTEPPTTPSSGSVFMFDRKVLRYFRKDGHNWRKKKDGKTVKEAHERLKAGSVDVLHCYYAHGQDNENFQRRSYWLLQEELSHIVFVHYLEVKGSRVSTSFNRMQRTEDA
# Target: T1, CAMTA3 CG-1 WT
# Assay: EMSA; complex detected from 25 ng protein, good binding at 50 ng or more; 20 fmol probe; reduced by unlabeled PDF1.4 competitor; 1X LightShift EMSA binding buffer, 50 ng/ul poly(dI-dC), 20 fmol probe in 20 ul, +/- 4 pmol unlabeled DNA, room temperature 30 min; 5% native PAGE, 0.5X TBE; pH and salt not given
# Details: protein: recombinant; tags: His (pET28a); label: 3'-biotin on strand 1; blunt
binder,measurement,value
PDF1.4 promoter probe (dsDNA) DNA 1: CGTGAAAGTCACGCGCCAAGAACAAA DNA 2: TTTGTTCTTGGCGCGTGACTTTCACG,binding result,binds
